One substance from paper PMC11964938 can be followed below.

The target of the test is purified, recombinant myristoylated HIV-1 MA protein (HIV-1 pNL4-3).

For “HIV-1 SP2 added to MA on lipid monolayers (peptide)”, the share of sub-images that contributed to mature-like MA lattice classes on lipid monolayers in the presence of SP2 (7% mature-like and 7% immature-like without SP2; no immature-like classes with SP2) turned out to be 47%.
